Assay results published in patent US20240024383A1, “ENGINEERED PROBIOTIC COMPOSITIONS AND USES THEREOF” (priority 2020, published 2024).
“Also recorded” adds a separate entry of the source.

Assays:
C. difficile = assay: Mouse model for parenteral ampicillin-induced disruption of colonization resistance against C. difficile; format: in vivo, C57BL/6 mice; details: single daily dose, 200 mg/kg intraperitoneal, 3 days, 5×10^3 spores 24 hours after last dose
Experimental: FIGS. 7A-7C. Mouse model for parenteral ampicillin-induced dysbiosis and the disruption of colonization resistance against C. difficile. FIG. 7A. A 3-day intraperitoneal ampicillin administration regimen is evaluated for its effects in abolishing colonization resistance against 5×10^3 spores of C. difficile at 24 hours after the last ampicillin dose. C. difficile density in feces is evaluated 24 hours after the infection. FIG. 7B. […] FIG. 7C. Dose-dependency of single daily intraperitoneal ampicillin injections in the disruption of colonization resistance against C. difficile.
L. lactis spTEM1 protects the diversity and composition of gut the microbiota in an ampicillin-induced dysbiosis murine model. To test the efficacy of L. lactis spTEM1 in preventing ampicillin-induced dysbiosis, a mouse model was developed that utilizes susceptibility to C. difficile infection as an endpoint indication of gut dysbiosis. […] Based on this antibiotic regimen, the inventors devised a probiotic intervention aimed at populating the mouse gut with L. lactis spTEM1 while ampicillin circulates in the body (FIG. 3A). […]
C. difficile infection. […] The number of colony forming units (CFU) was counted using TCCFA plates supplemented with 50 μg/mL Erythromycin at 37° C. under anaerobic conditions, as previously reported.^26

[1] = molecular target: T1, β lactamase fragment (BLF) 2 of TEM1 β-lactamase, without SpyCatcher
T1 chain: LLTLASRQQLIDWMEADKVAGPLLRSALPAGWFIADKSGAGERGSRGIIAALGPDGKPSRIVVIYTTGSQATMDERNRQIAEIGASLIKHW

[2] = Nitrocefin hydrolysis assay for β-lactamase activity in culture supernatants; format: biochemical; details: 0.1 mM nitrocefin, absorbance at 486 nm
Text: A L. lactis strain was generated that is able to inactivate β-lactam antibiotics in its surroundings by secreting a split enzyme that is encoded in a two-gene biosynthesis pathway. By splitting β-lactam degradation into a genetically unlinked trait the selective advantage conferred upon a single locus was removed, thereby limiting the possible spread of the engineered trait in the population through a single HGT event. To achieve this, a heterodimeric version of the TEM1 β-lactamase (spTEM1) that regains its activity when reconstituted in the extracellular environment was generated.
β-lactamase assay. Nitrocefin (BioVision) was dissolved in DMSO to make a 1 mM stock. It was added to samples bacterial culture supernatant in a clear-bottom 96-well plate to a final concentration of 0.1 mM. The plate was placed in a spectrophotometer SpectraMaX™ M5 (Molecular Devices) to read absorbance at 486 nm over time.

E. coli = assay: Cell density-dependent survival/growth on ampicillin, E. coli expressing spTEM1 elements; format: cell-based, Escherichia coli
Text: FIGS. 2A-2B. […] FIG. 2A. Cell density-dependent growth on ampicillin. β-lactamases in the periplasm of Gram-negative bacteria i.e. E. coli, confer selective advantage to single-cells. Survival to ampicillin is an emergent property of the of the L. lactis spTEM1 population and not of single cells. Diffusion from the cell surface precludes protection to the producer cell when the population density is low. FIG. 2B. Estimation of the ampicillin survival density threshold in prototypical Gram-negative and Gram-positive strains expressing elements of the spTEM1 system.
The spTEM1 β-lactamase system is not amenable to HGT. Stable acquisition of a new genetic trait by HGT requires both the physical mobilization of DNA into the recipient cell and that the expression of the newly obtained genetic material provides enough selective advantage to outcompete the rest of the population. While encoding the spTEM1 β-lactamase system in separate genetic loci reduces the likelihood of transfer to a single recipient cell, the scenario of simultaneous acquisition of the two β-lactamase fragments cannot be completely ruled out. The inventors investigated whether stable acquisition of the spTEM1 β-lactamase genes to a Gram-negative bacterium confers a fitness advantage in the presence of ampicillin.
Bacterial strains. […]

CC1(C)S[C@@H]2[C@H](NC(=O)[C@H](N)c3ccccc3)C(=O)N2[C@H]1C(=O)O [ampicillin]
disruption of colonization resistance against C. difficile (C. difficile): sufficient to abrogate colonization resistance; also recorded: enough to sensitize the mouse gut to robust C. difficile colonization

B1: β lactamase fragment (BLF) 1 of TEM1 β-lactamase, without SpyTag (protein)
chain: MHPETLVKVKDAEDQLGARVGYIELDLNSGKILESFRPEERFPMMSTFKVLLCGAVLSRIDAGQEQLGRRIHYSQNDLVEYSPVTEKHLTDGMTVRELCSAAITMSDNTAANLLLTTIGGPKELTAFLHNMGDHVTRLDRWEPELNEAIPNDERDTTTPVAMATTLRKLLTG
β-lactamase activity in culture supernatants (nitrocefin) [1]: slow in reconstituting and show minimal β-lactamase activity

B2: ST-BLF-1: SpyTag fused to TEM1 β-lactamase fragment BLF1 with usp45 secretion signal (SEQ ID NO: 4) (protein)
chain: MKKKIISAILMSTVILSAAAPLSGVYAAHIVMVDAYKPTKGGGGSGGGGSMHPETLVKVKDAEDQLGARVGYIELDLNSGKILESFRPEERFPMMSTFKVLLCGAVLSRIDAGQEQLGRRIHYSQNDLVEYSPVTEKHLTDGMTVRELCSAAITMSDNTAANLLLTTIGGPKELTAFLHNMGDHVTRLDRWEPELNEAIPNDERDTTTPVAMATTLRKLLTG
β-lactamase activity (nitrocefin hydrolysis) [2]: do not display β-lactamase activity

B3: TEM1 β-lactamase: Intact TEM1 β-lactamase with periplasmic localization in E. coli (protein, UniProt P62593 24-286, looked up)
Beta-lactamase TEM: HPETLVKVKDAEDQLGARVGYIELDLNSGKILESFRPEERFPMMSTFKVLLCGAVLSRVDAGQEQLGRRIHYSQNDLVEYSPVTEKHLTDGMTVRELCSAAITMSDNTAANLLLTTIGGPKELTAFLHNMGDHVTRLDRWEPELNEAIPNDERDTTMPAAMATTLRKLLTGELLTLASRQQLIDWMEADKVAGPLLRSALPAGWFIADKSGAGERGSRGIIAALGPDGKPSRIVVIYTTGSQATMDERNRQIAEIGASLIKHW
growth in ampicillin as single colonies (E. coli): enables the growth in ampicillin as single colonies
